Measurements taken from US20180015176A1 (Bayer, published 2018).

B1: TPP-883 single-substitution variant A51Q of CDR-L2 (soluble Fab) (Fab, V domains shown)
VH: EVQLLESGGGLVQPGGSLRLSCAASGFTFSPYPMMWVRQAPGKGLEWVSYISPSGGKTHYADSVKGRFTISRDNSKNTLYLQMNSLRAEDTAVYYCARGGDGYFDYFDYWGQGTLVTVSS
VL: DIQMTQSPATLSASVGDRVTITCRASQSISSYLNWYQQKPGKAPKLLIYQASSLQSGVPSRFSGSGSGTDFTLTISSLQPEDFATYYCQQSYSSPGITFGPGTKVEIK
notes: Soluble Fab
B2: TPP-883 single-substitution variant G97F of CDR-L3 (soluble Fab) (Fab, V domains shown)
VH: EVQLLESGGGLVQPGGSLRLSCAASGFTFSPYPMMWVRQAPGKGLEWVSYISPSGGKTHYADSVKGRFTISRDNSKNTLYLQMNSLRAEDTAVYYCARGGDGYFDYFDYWGQGTLVTVSS
VL: DIQMTQSPATLSASVGDRVTITCRASQSISSYLNWYQQKPGKAPKLLIYAASSLQSGVPSRFSGSGSGTDFTLTISSLQPEDFATYYCQQSYSSPFITFGPGTKVEIK
notes: Soluble Fab
B3: TPP-883 single-substitution variant M35I of CDR-H1 (soluble Fab) (Fab, V domains shown)
VH: EVQLLESGGGLVQPGGSLRLSCAASGFTFSPYPMIWVRQAPGKGLEWVSYISPSGGKTHYADSVKGRFTISRDNSKNTLYLQMNSLRAEDTAVYYCARGGDGYFDYFDYWGQGTLVTVSS
VL: DIQMTQSPATLSASVGDRVTITCRASQSISSYLNWYQQKPGKAPKLLIYAASSLQSGVPSRFSGSGSGTDFTLTISSLQPEDFATYYCQQSYSSPGITFGPGTKVEIK
notes: Soluble Fab; also called M351
B4: TPP-883 single-substitution variant G102T of CDR-H3 (soluble Fab) (Fab, V domains shown)
VH: EVQLLESGGGLVQPGGSLRLSCAASGFTFSPYPMMWVRQAPGKGLEWVSYISPSGGKTHYADSVKGRFTISRDNSKNTLYLQMNSLRAEDTAVYYCARGGDTYFDYFDYWGQGTLVTVSS
VL: DIQMTQSPATLSASVGDRVTITCRASQSISSYLNWYQQKPGKAPKLLIYAASSLQSGVPSRFSGSGSGTDFTLTISSLQPEDFATYYCQQSYSSPGITFGPGTKVEIK
notes: Soluble Fab; also called best single-substitution variant G102T

biological target: T1, TPP-599 (HUMAN-TNFRSF12Aaa28-80-hIgG1-Fc) (human, biotinylated with Biotin-LC-NHS (about 2-fold molar excess)); assay: ELISA, soluble Fab on 2.5 nM biotinylated TWEAKR-Fc, anti-c-myc detection
T1 construct: Dimeric Fc-fused extracellular domain of human TWEAKR, used biotinylated in the panning and the Fab ELISA; also called TWEAKR Fc; TWEAKR-Fc
Protocol: Affinity maturation was carried out by phage panning. Washed magnetic beads (DynaBeads) were incubated at 4° C. with 10 nM, 1 nM, 100 pM and 10 pM of biotinylated human antigen overnight and blocked with blocking buffer (PBS with 3% BSA, 0.05% Tween-20) at 4° C. for 1 h. The blocked Fab phage library was added to the blocked TWEAKR DynaBeads at 10 000-fold, 1000-fold and 100-fold excess, compared to the theoretical library complexity, and incubated at room temperature for 30 min. Thus, 12 strategies in total were followed (4 antigen concentrations×3 Fab phage titers). […] For the expression of soluble Fab, the phagemide vector was digested with MluI to remove the gene III-membrane anchor sequence required for Fab display on the phage, and ligated again. 96 variants of each of the 12 selection pools were expressed as soluble Fabs and examined in an ELISA format. […] For efficacy maturation, HEK293 cells were transfected with an NF-kappaB reporter (BioCat, Cat. No. LR-0051-PA). Transfected cells were sown in F17 media (serum-free; Invitrogen) in white polylysine-coated 384-well plates (BD), and individual variants of the NNK-diversified position antibody (human IgG1) libraries were expressed transiently in mammalian cells. The next day, NF-kappaB reporter cells were stimulated with the expressed single-NNK antibody variants for 6 h, and a luciferase assay was then carried out by standard methods.

Binding result, binds:
B1
B2
B3
B4
